Reference: patent US20260327578A1, “TRANSGLUTAMINASES AND USES THEREOF” (CURIE CO. INC., priority 2023, published 2026)
Positions count from the first letter of the chain named. Names and notes keep the numbering of the source.

B1: A4: Tgase variant S2P Q50S Q74A K91H Q124L K151R K152R N282Q S284A H289I relative to SEQ ID NO: 2 (protein, UniProt P81453 77-407, looked up, variant S2P Q50S Q74A K91H Q124L K151R K152R N282Q S284A H289I)
Protein-glutamine …: DPDDRVTPPAEPLDRMPDPYRPSYGRAETVVNNYIRKWQQVYSHRDGRKSQMTEEQREWLSYGCVGVTWVNSGAYPTNRLAFASFDEDRFHNELKNGRPRSGETRAEFEGRVAKESFDEEKGFLRAREVASVMNRALENAHDESAYLDNLRRELANGNDALRNEDARSPFYSALRNTPSFKERNGGNHDPSRMKAVIYSKHFWSGQDRSSSADKRKYGDPDAFRPAPGTGLVDMSRDRNIPRSPTSPGEGFVNFDYGWFGAQTEADADKTVWTHGNHYHAPQGALGAMIVYESKFRNWSEGYSDFDRGAYVITFIPKSWNTAPDKVKQGWP
B2: A6: Tgase variant S2P D14W Q50S Q74A K91H Q124L K151R K152R A166W N282M G283A S299V relative to SEQ ID NO: 2 (protein, UniProt P81453 77-407, looked up, variant S2P D14W Q50S Q74A K91H Q124L K151R K152R A166W N282M G283A S299V)
Protein-glutamine …: B1 Protein-glutamine … with D14W, A166W, Q282M, G283A, A284S, I289H, S299V
B3: A17: Tgase variant S2P D14N Q50S Q74A K91H Q124L K151R K152R N282M G283A relative to SEQ ID NO: 2 (protein, UniProt P81453 77-407, looked up, variant S2P D14N Q50S Q74A K91H Q124L K151R K152R N282M G283A)
Protein-glutamine …: B1 Protein-glutamine … with D14N, Q282M, G283A, A284S, I289H
B4: A5: Tgase variant S2P Q50S Q74A K91H Q124L K151R K152R N282D S284A H289I S299E relative to SEQ ID NO: 2 (protein, UniProt P81453 77-407, looked up, variant S2P Q50S Q74A K91H Q124L K151R K152R N282D S284A H289I S299E)
Protein-glutamine …: B1 Protein-glutamine … with Q282D, S299E
B5: A18: Tgase variant S2P Q50S Q51A Q74A K91H Q124L K151R K152R N282M G283A H289I relative to SEQ ID NO: 2 (protein, UniProt P81453 77-407, looked up, variant S2P Q50S Q51A Q74A K91H Q124L K151R K152R N282M G283A H289I)
Protein-glutamine …: B1 Protein-glutamine … with Q51A, Q282M, G283A, A284S
B6: A14: Tgase variant S2P Q50S Q51E Q74A K91H Q124L Y146F K151R K152R N282M G283A H289I S299V relative to SEQ ID NO: 2 (protein, UniProt P81453 77-407, looked up, variant S2P Q50S Q51E Q74A K91H Q124L Y146F K151R K152R N282M G283A H289I S299V)
Protein-glutamine …: B1 Protein-glutamine … with Q51E, Y146F, Q282M, G283A, A284S, S299V
B7: A10: Tgase variant S2P A10T Q50S Q74A K91H Q124L S131I K151R K152R N282M G283A S299V relative to SEQ ID NO: 2 (protein, UniProt P81453 77-407, looked up, variant S2P A10T Q50S Q74A K91H Q124L S131I K151R K152R N282M G283A S299V)
Protein-glutamine …: B1 Protein-glutamine … with A10T, S131I, Q282M, G283A, A284S, I289H, S299V
B8: A8: Tgase variant S2P D14W Q50S Q74A K91H Q124L K151R K152R N282M G283A S299A relative to SEQ ID NO: 2 (protein, UniProt P81453 77-407, looked up, variant S2P D14W Q50S Q74A K91H Q124L K151R K152R N282M G283A S299A)
Protein-glutamine …: B1 Protein-glutamine … with D14W, Q282M, G283A, A284S, I289H, S299A
B9: A1: Tgase variant S2P Q50S Q74A K91H Q124L K151R K152R N282R relative to SEQ ID NO: 2 (protein, UniProt P81453 77-407, looked up, variant S2P Q50S Q74A K91H Q124L K151R K152R N282R)
Protein-glutamine …: B1 Protein-glutamine … with Q282R, A284S, I289H
B10: A16: Tgase variant S2P D18T Q50S Q74A K91H Q124L S131R V132L K151R K152R N282M G283A relative to SEQ ID NO: 2 (protein, UniProt P81453 77-407, looked up, variant S2P D18T Q50S Q74A K91H Q124L S131R V132L K151R K152R N282M G283A)
Protein-glutamine …: B1 Protein-glutamine … with D18T, S131R, V132L, Q282M, G283A, A284S, I289H
B11: A12: Tgase variant S2P R15T Q50S Q74A K91H Q124L K151R K152R N282M G283A H289I relative to SEQ ID NO: 2 (protein, UniProt P81453 77-407, looked up, variant S2P R15T Q50S Q74A K91H Q124L K151R K152R N282M G283A H289I)
Protein-glutamine …: B1 Protein-glutamine … with R15T, Q282M, G283A, A284S
B12: A9: Tgase variant S2P Q50S Q74A K91H K95E Q124L K151R K152R N282M G283A S299V relative to SEQ ID NO: 2 (protein, UniProt P81453 77-407, looked up, variant S2P Q50S Q74A K91H K95E Q124L K151R K152R N282M G283A S299V)
Protein-glutamine …: B1 Protein-glutamine … with K95E, Q282M, G283A, A284S, I289H, S299V
B13: A7: Tgase variant S2P Q50S Q74A K91H Q124L K151R K152R N282M G283A S299V relative to SEQ ID NO: 2 (protein, UniProt P81453 77-407, looked up, variant S2P Q50S Q74A K91H Q124L K151R K152R N282M G283A S299V)
Protein-glutamine …: B1 Protein-glutamine … with Q282M, G283A, A284S, I289H, S299V
B14: A13: Tgase variant S2P Q50S Q51E Q74A K91H Q124L K151R K152R F170I N282M G283A H289I S299V relative to SEQ ID NO: 2 (protein, UniProt P81453 77-407, looked up, variant S2P Q50S Q51E Q74A K91H Q124L K151R K152R F170I N282M G283A H289I S299V)
Protein-glutamine …: B1 Protein-glutamine … with Q51E, F170I, Q282M, G283A, A284S, S299V
B15: A11: Tgase variant S2P D14W Q50S Q74A K91H Q124L S131I K151R K152R N282M G283A S299V relative to SEQ ID NO: 2 (protein, UniProt P81453 77-407, looked up, variant S2P D14W Q50S Q74A K91H Q124L S131I K151R K152R N282M G283A S299V)
Protein-glutamine …: B1 Protein-glutamine … with D14W, S131I, Q282M, G283A, A284S, I289H, S299V
B16: A2: Tgase variant S2P Q50S Q74A K91H Q124L K151R K152R N282E S284A relative to SEQ ID NO: 2 (protein, UniProt P81453 77-407, looked up, variant S2P Q50S Q74A K91H Q124L K151R K152R N282E S284A)
Protein-glutamine …: B1 Protein-glutamine … with Q282E, I289H
B17: A15: Tgase variant S2P Q50S Q74A K91H K95E Q124L K151R K152R N282M G283A relative to SEQ ID NO: 2 (protein, UniProt P81453 77-407, looked up, variant S2P Q50S Q74A K91H K95E Q124L K151R K152R N282M G283A)
Protein-glutamine …: B1 Protein-glutamine … with K95E, Q282M, G283A, A284S, I289H

tested on: N,N-dimethylcasein; assay: Productivity: total product formed after 24 hours (protein functionalization assay); format: biochemical; design: key: −: a reduction in activity; +: an improvement between 1.2 and 2-fold; ++: an improvement between 2 and 5-fold; +++: an improvement greater than 5-fold; conditions: improvement relative to wild-type Tgase (SEQ ID NO: 2); total product after 24 h
Description: (§1) Enzymatic “productivity” is a measure of product formation or substrate disappearance over time, at a prescribed temperature under specified reaction conditions. It is the measure both the durability and reaction yield of the enzyme variant. In this instance, productivity is defined as total product formed over 24-hours at a constant substrate concentration when the enzyme is the rate limiting factor. The time is defined as 24 hours, which represents approaching or surpassing burnout, denaturation, or self-reaction of the enzyme variant. In other words, variants with higher productivity deliver a higher product yield in 24-hours than variants with lower productivity produce in the same period of time. “Rate” refers to the initial rate for an enzymatic reaction, at a prescribed temperature under specified reaction conditions. The enzyme produces product at an initial rate that is approximately linear for a short period after the start of the reaction. When concentrations of enzyme and substrate are the same across the sample set, initial rates between enzyme variants can be compared. In this instance, the linear range for production of product occurs in one hour. Enzyme variants with faster initial rates deliver a higher product yield in one hour than variants with slower initial rates produce at the same time-period. In some cases, improvements to initial rates also deliver a more productive variant. In some cases, improvements to initial rates result in faster decay of the enzyme variant reducing overall enzymatic productivity. Productivity and rate may be assessed as described in Example 2.
(§2) Table 6 depicts variants of Streptomyces mobaraensis Tgase and improvement to productivity and/or rate relative to wild-type Tgase (SEQ ID NO. 2) as determined in Example 3. Numbering of amino acid positions is in reference to the mature S. mobaraensis Tgase sequence depicted in SEQ ID NO. 2. A “−” indicates a reduction in activity. A “+” indicates an improvement between 1.2 and 2-fold. A “++” indicates an improvement between 2 and 5-fold. A “+++” indicates an improvement greater than 5-fold.
To evaluate productivity, total product formed was measured after 24-hours of incubation, using the assay described in Example 4B. The time is defined as 24 hours which represents approaching or surpassing burnout, denaturation, or self-reaction of the enzyme variant.
(§3) Protein functionalization by Tgase variants was determined by the fluorogenic labeling of casein using monodansylcadaverine (e.g., a commercially available kit such as the Transglutaminase Fluorogenic Activity Assay Kit, T036, Zedira, Germany). Tgase activity was monitored by measuring fluorescence (excitation wavelength 332 nm; emission wavelength 500 nm) using a BioTek Synergy H1 microplate reader. Transglutaminase-catalyzed covalent coupling (crosslinking) of monodansylcadaverine with N,N-dimethylcasein produces a product that causes a shift in intensity and wavelength of fluorescence of the dansyl group now linked to the casein. The relative transglutaminase activity is shown by increase of fluorescence intensity over time. Enzyme variant loading was optimized based on expression levels, ensuring enzyme was the rate limiting factor. Briefly, cell-free reactions (set up as described in Example 2A) were first diluted 10-fold using phosphate buffer, pH 7.4, and a 5 microliter aliquot was analyzed.

| Molecule | Productivity |
| --- | --- |
| B1 | + (an improvement between 1.2 and 2-fold) |
| B2 | ++ (an improvement between 2 and 5-fold) |
| B3 | − |
| B4 | + (an improvement between 1.2 and 2-fold) |
| B5 | − |
| B6 | + (an improvement between 1.2 and 2-fold) |
| B7 | + (an improvement between 1.2 and 2-fold) |
| B8 | + (an improvement between 1.2 and 2-fold) |
| B9 | + (an improvement between 1.2 and 2-fold) |
| B10 | − |
| B11 | + (an improvement between 1.2 and 2-fold) |
| B12 | + (an improvement between 1.2 and 2-fold) |
| B13 | + (an improvement between 1.2 and 2-fold) |
| B14 | + (an improvement between 1.2 and 2-fold) |
| B15 | + (an improvement between 1.2 and 2-fold) |
| B16 | − |
| B17 | − |

tested on: N,N-dimethylcasein; assay: Rate of product formation over 60 minutes (protein functionalization assay); format: biochemical; design: key: −: a reduction in activity; +: an improvement between 1.2 and 2-fold; ++: an improvement between 2 and 5-fold; +++: an improvement greater than 5-fold; conditions: improvement relative to wild-type Tgase (SEQ ID NO: 2); initial rate over 60 min
Description: as §1, §2
Rate was assessed by measuring the rate of product formation over 60 minutes of incubation using a kinetic method to take scans every 60 seconds to determine product formation, using reaction conditions as described in Example 4B. The enzyme produces product at an initial rate that is approximately linear for the first one hour of the reaction. The concentrations of enzyme and substrate are the same across the sample set for each enzyme variant. Enzyme variants with faster initial rates deliver a higher product yield in one hour than variants with slower initial rates produce at the same time-period.
as §3

| Molecule | Rate |
| --- | --- |
| B1 | − |
| B2 | +++ (an improvement greater than 5-fold) |
| B3 | + (an improvement between 1.2 and 2-fold) |
| B4 | − |
| B5 | + (an improvement between 1.2 and 2-fold) |
| B6 | − |
| B7 | + (an improvement between 1.2 and 2-fold) |
| B8 | ++ (an improvement between 2 and 5-fold) |
| B9 | − |
| B10 | ++ (an improvement between 2 and 5-fold) |
| B11 | + (an improvement between 1.2 and 2-fold) |
| B12 | + (an improvement between 1.2 and 2-fold) |
| B13 | + (an improvement between 1.2 and 2-fold) |
| B14 | + (an improvement between 1.2 and 2-fold) |
| B15 | + (an improvement between 1.2 and 2-fold) |
| B16 | + (an improvement between 1.2 and 2-fold) |
| B17 | + (an improvement between 1.2 and 2-fold) |
